Source: patent US11827690B2, “ApoC-II mimetic peptides” (THE UNITED STATES OF AMERICA, as represented by the …, priority 2017, dated 2023)
Non-standard residues stand in square brackets, D forms with d. No end group written: not given here. *: point of attachment. Stearoyl = CCCCCCCCCCCCCCCCCC(=O)*; Nle = CCCC[C@H](N)C(=O)O

Key:
C57BL/6 mice (wild-type) = assay: post-prandial serum TG in C57BL/6 mice after oral gavage with vegetable oil; assay type: in vivo; settings: intraperitoneally injected 30 min before gavage, FIG. 20
Experimental: (§1) C57Bl/6 mice (wild-type), apoC-II knockout (apoC-II KO) mice, and apoC-III transgenic mice were used for in vivo study. The C57Bl/6 mice (wild-type) were purchased from Taconic Biosciences Inc. The apoC-II KO mice were created as described in Sakurai et al., J Pharmacol Exp Ther 356:341-353, 2016. The apoC-III transgenic mice were generated by overexpressing human apoC-III in C57Bl/6 mice. See Qu et al., J. Lipid Res. 48:1476-1487, 2007.
(§2) Mice were fasted overnight (approximately 12 hours) before the study and 6 hours during the study, the next day. The apoC-II mimetic peptides were synthetically produced and free of biological contamination (not available as FDA approved compounds/treatment). Peptides were produced and used in sterile conditions and filtered by 0.2 nm filter before injections in a single dose 1-10 μmol/kg body weight (B. W.) administered either subcutaneous injection (S.Q. or S.C.), intraperitoneal injection (I.P.) or intravenous injection (I.V.) (in a sterile, pharmaceutical grade PBS solution at a volume ≤200 μL) as described in Sakurai et al., J Pharmacol Exp Ther 356:341-353, 2016.
(§3) In some experiments, each animal received 20% Intralipid (FDA approved, Fresenius Kabi, Uppsala, Sweden) in a single dose either by oral gavage (using special sterile single-use non-toxic animal feeding needles) in a dose 10-20 μL/gram body weight (B.W.) (Tuzcu et al. Drug Chem Toxicol 37: 261-267, 2014; Kusminski et al. Nature Medicine 18: 1539-1549, 2012), or by intraperitoneal injection in a single bolus of 0.1-1.0 mL (Mahadero et al. American J Surgery 164: 45-50, 1992), or by intragastric administration of a dietetic commercially-available liquid oil (food grade vegetable, corn, soy or olive oil) in a single dose 10-20 μL/gram body weight. These oils were a source of TG—when absorbed TG tends to be broken down within 3 h (peak in 30 min) (Kritchevsky Nutritional Biochemistry 6:172-178, 1995). Blood samples (20-30 μL) were obtained from the retro-orbital plexus at time points: −1 h, 0 h, 1 h, 3 h, 6 h and 24 h for measurements of lipids. Mice were returned to metabolic cages after the 6 h time point where the food was put back. Once the study was completed (after 24 hours from the fat administration), mice were euthanized and organs collected.

bovine LPL [1] = molecular target: T1, bovine LPL (Bos taurus, UniProt P11151); assay: in vitro LPL assay using hypertriglyceridemia patient sera as substrate; assay type: biochemical; settings: sera of patients with high levels of apoC-III protein, FIG. 27
T1 sequence (P11151 29-478): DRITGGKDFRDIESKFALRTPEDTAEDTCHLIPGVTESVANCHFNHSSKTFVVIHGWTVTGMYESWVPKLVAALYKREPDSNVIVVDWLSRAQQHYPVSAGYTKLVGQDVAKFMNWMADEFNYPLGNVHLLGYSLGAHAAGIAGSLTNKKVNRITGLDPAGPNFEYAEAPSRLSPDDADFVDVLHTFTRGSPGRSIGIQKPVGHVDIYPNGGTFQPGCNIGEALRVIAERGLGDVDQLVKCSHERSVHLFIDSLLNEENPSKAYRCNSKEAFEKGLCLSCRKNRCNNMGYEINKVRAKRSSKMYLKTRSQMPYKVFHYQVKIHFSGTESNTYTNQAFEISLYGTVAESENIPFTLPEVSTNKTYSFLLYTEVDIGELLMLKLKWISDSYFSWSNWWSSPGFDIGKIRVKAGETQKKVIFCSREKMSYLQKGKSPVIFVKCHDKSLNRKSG
Experimental: (§4) Preparation of LPL: frozen stock of 10 μL of 0.5 mg/mL bovine LPL was used and diluted 1:100 (10 μL+990 μL of PBS).
(§5) Preparation of free fatty acid (NEFA) assay: NEFA reagents were purchased from Wako Diagnostics, Wako Life Sciences, Inc. Reagent A was prepared by mixing Coloring Reagent A with Solvent A (225 μL per well). Reagent B was prepared by mixing Coloring Reagent B with Solvent B (75 μL per well). 5 nmoL oleic acid standard was prepared by diluting 20 μL of 1 mM oleic acid stock (WAKO NEFA standard solution) with 180 μL of 0.2% BSA.
(§6) LPL activity assay: 10 μL of Intralipid, human plasma sample, or mouse plasma sample was added in each well using repeater pipette. 10 μL (or 15 μL in the wells with no LPL control) of PBS and 10 μL of 1% BSA was added in each well using repeater pipette. 10 μL of peptides were added to corresponding wells in vertical triplicates (lowest concentration is on a left, highest is on the right). The plate was spun down at 1000 RPM for 10 seconds to mix and to remove the solutions from the wall of each well. The plate was put on ice and 5 μL of LPL was added using repeater pipette. The plate was spun down again at 1000 RPM for 10 seconds. The plate was covered and put back on ice for an incubation of 30 min. The plate was then moved to 37° C. and incubated for 1 hour.
(§7) Free fatty acids (NEFA) assay: 45 μL of 5 nmoL standard and 0 nmoL control (0.2% BSA) were added to corresponding wells. 225 μL of reagent A was added in each well using the reagent tray and 12-channel pipette. The plate was incubated for 10 min before 75 μL of reagent B was added to each well using the reagent tray and 12-channel pipette. The plate was not covered due to the high volume. The absorbance at 550 nm and 660 nm was measured.

apoC-II knockout mice = assay: plasma lipids of apoC-II knockout mice after peptide injection; assay type: in vivo
Experimental: as §1
as §2, with “Peptides were produced and used in sterile conditions and filtered by 0.2 nm filter before injections in a single dose 1-10 μmol/kg body weight (B.” left out

bovine LPL [2] = molecular target: T1, bovine LPL; assay: in vitro LPL assay using apoC-II deficient patient sera as substrate; assay type: biochemical; settings: for promoting TG hydrolysis in the presence of LPL / efficiency compared with native apoC-II protein: FIG. 6; for efficiency compared with native apoC-II protein: at lower concentrations; for TG hydrolysis: concentrations from 100 pM to 10 μM, FIG. 12; for TG clearance ability compared with Delta4: FIG. 10
Experimental: as §4
(§8) Preparation of 20% Intralipid: 2000 mg/dL TG Intralipid was used to prepare 3 mg/dL TG Intralipid by diluting 1.5 μL of the stock with 998.5 μL PBS, or by diluting the stock 1:10 first and then mixing 15 μL of the diluted stock with 985 μL PBS. When apoC-II deficient human serum was used as a substrate, a frozen 10 μL aliquot of 1711 mg/dL (TG) was diluted by adding 990 μL PBS (1:100 dilution).
as §5, §6, §7

bovine LPL [3] = molecular target: T1, bovine LPL; assay: in vitro LPL assay using Intralipid as substrate; assay type: biochemical; settings: concentrations of between about 1 nM to about 10 μM, FIG. 7
Experimental: as §4, §8, §5
LPL activity assay: 10 μL of Intralipid, human plasma sample, or mouse plasma sample was added in each well using repeater pipette. 10 μL (or 15 μL in the wells with no LPL control) of PBS and 10 μL of 1% BSA was added in each well using repeater pipette. […]
Free fatty acids (NEFA) assay: 45 μL of 5 nmoL standard and 0 nmoL control (0.2% BSA) were added to corresponding wells. […] The absorbance at 550 nm and 660 nm was measured.

wild-type mice = assay: serum TG of wild-type mice after Intralipid injection with or without LPL inhibitor Triton WR1339; assay type: in vivo; settings: co-injection with Intralipid, 6 h time point
Experimental: as §3
The ability of apolipoprotein mimetic peptides to normalize hypertriglyceridemia in mice treated with an LPL inhibitor, Tyloxapol, in presence of high TG provided by 20% Intralipid, was assessed.
Mice were fasted overnight (approximately 12 hours) before the study and 6 hours during the study, the next day. The apo mimetic peptides were synthetically produced and free of biological contamination (not available as FDA approved compounds/treatment). Peptides were produced and used in sterile conditions and filtered by 0.2 nm filter before injections in a single dose 1-5 μmol/kg B.W. either S.C. or I.P. or I.V. (in a sterile, pharmaceutical grade PBS solution at a volume ≤200 μL). Next, 10% Tyloxapol (Triton WR-1339, T-0307, Sigma-Aldrich) was injected I.V. in a single dose of 5 μL/gram B.W., as described earlier (Zhang Y. L. et al., J Biol Chem. 279: 19362-19374, 2004; Abe C. et al., J. Nutr. 137: 345-350, 2007). […] Finally, each animal received 20% Intralipid (FDA approved, Fresenius Kabi, Uppsala, Sweden) in a single dose either by oral gavage (using special sterile single-use non-toxic animal feeding needles)—in a dose 10-20 μL/gram B.W. (Tuzcu K. et al., Drug Chem Toxicol., 37: 261-267, 2014, Kusminski C. et al., Nature Medicine. 18: 1539-1549, 2012), or by intraperitoneal injection—in a single bolus of 0.1-1.0 mL (Mahadero G. et al., American J Surgery. 164: 45-50, 1992). Blood samples (20-30 μL) were obtained from the retro-orbital plexus at time points: −1 h, 0 h, 1 h, 3 h, 6 h and 24 h for measurements of lipids. Mice were returned to metabolic cages after the 6 h time point where the food was put back. Once the study was completed (after 24 hours from the Intralipid administration), mice were euthanized and organs collected.

[4] = molecular target: T2, LPL inhibited by apoC-III (Bos taurus, UniProt P11151); assay: LPL activation assay with high TG human plasma as substrate and recombinant apoC-III as an inhibitor; assay type: biochemical; settings: 50 μM apoC-III added; from about 3.2 μM without; plasma 1:50 dilution
T2 sequence (P11151 29-478): T1 sequence (P11151 29-478)
Experimental: as §6, §7
(§9) LPL assay was performed using Intralipid, high TG human plasma (1:50 dilution), or apoC-III transgenic mouse plasma (1:50 dilution). When Intralipid was used as a substrate, 25 or 50 μM recombinant ApoC-III was added as an inhibitor. When the high TG human plasma was used as a substrate, 25 or 50 μM recombinant ApoC-III was added as an inhibitor with or without pre-incubation at 37° C. for 1 hour. An apoC-II mimetic peptide was added at various concentrations.

[5] = molecular target: T2, LPL inhibited by apoC-III; assay: LPL assay using human apoC-II deficient plasma as substrate with recombinant apoC-III; assay type: biochemical; settings: 25 μM apoC-III added; from about 1.5 μM without
Experimental: as §6, §7, §9

[6] = molecular target: T2, LPL inhibited by apoC-III; assay: LPL activation assay with Intralipid as substrate and recombinant apoC-III as an inhibitor; assay type: biochemical; settings: Intralipid substrate, FIG. 31
Experimental: as §6, §7, §9

Substance | serum TG increase after vegetable oil gavage (C57BL/6 mice (wild-type)) | promoting TG hydrolysis in the presence of LPL (bovine LPL [2]) | efficiency compared with native apoC-II protein (bovine LPL [2]) | TG hydrolysis (bovine LPL [2]) | efficiency compared with native apoC-II protein (bovine LPL [3]) | TG clearance ability compared with Delta4 (bovine LPL [2]) | other results
DYLKAVFEKLRDLYSKFTAAnLSTYTGIFTDQVLSVLKGEE (DYLKAVFEKLRDLYSKFTAA[Nle]STYTGIFTDQVLSVLKGEE) [Delta4] | the TG increase was significantly reduced | capable of promoting TG hydrolysis in the presence of LPL | worked more efficiently than the native apoC-II protein | promoted TG hydrolysis in a dose-dependent manner | worked more efficiently than the native apoC-II protein | – | LPL activity (bovine LPL [1]): increased the LPL activity; plasma TG (apoC-II knockout mice; intraperitoneal injection): marked reduction of plasma TG; total cholesterol level (apoC-II knockout mice; intraperitoneal injection): decrease in total cholesterol level; time of maximum decrease of plasma TG (apoC-II knockout mice; intraperitoneal injection, FIG. 18): about 3 hours; plasma TG (apoC-II knockout mice; subcutaneous injection): rapid and marked reduction of plasma TG; total cholesterol level (apoC-II knockout mice; subcutaneous injection): decrease in total cholesterol level
DYLKAVFEKLRDLYSKFTPAMSTYTGIFTDQVLSVLKGEE [Delta4b] | the TG increase was significantly reduced | – | – | promoted TG hydrolysis in a dose-dependent manner | – | enhanced the TG clearance ability of the exemplary apoC-II mimetic peptide Delta4 | –
DYLKAVFEKLRDLYSKKC18TPAMSTYTGIFTDQVLSVLKGEE (DYLKAVFEKLRDLYSKK(Stearoyl)TPAMSTYTGIFTDQVLSVLKGEE) [Delta4b-3] | the TG increase was significantly reduced | – | – | promoted TG hydrolysis in a dose-dependent manner | – | enhanced the TG clearance ability of the exemplary apoC-II mimetic peptide Delta4 | –
DYLKEVFEKLRDLYSKFTAAnLSTYTGIFTDQVLSVLKGEE (DYLKEVFEKLRDLYSKFTAA[Nle]STYTGIFTDQVLSVLKGEE) [Delta5] | – | capable of promoting TG hydrolysis in the presence of LPL | worked more efficiently than the native apoC-II protein | – | worked more efficiently than the native apoC-II protein | – | –
Tyloxapol [Triton, reference compound] | – | – | – | – | – | – | increase of serum TG level (wild-type mice): more than 1000 fold
apoC-III recombinant protein: recombinant ApoC-III added as an inhibitor in the LPL assay | – | – | – | – | – | – | free fatty acid (NEFA) production [4]: about 1.7 μM; free fatty acid (NEFA) production [5]: about 0.8 μM; effect on production of free fatty acid (NEFA) [6]: inhibited the production of free fatty acid (NEFA)
